How the values were obtained:
[1] = molecular target: T1, Human PD-1 expressed on CHO-K1 cells (CHO-K1/hPD-1) (human, UniProt Q15116 25-288); assay: FACS blocking of biotin-labeled human PD-L1 binding to CHO-K1-hPD-1 cells
T1 construct: whole, on cells; also called CHO-K1 cells overexpressing human PD-1

[2] = molecular target: T1, Human PD-1 expressed on CHO-K1 cells …; assay: FACS, CHO-K1-hPD-1 cells
Protocol: In order to investigate the binding activity of the CD73×PD-1 bispecific antibody to human CD73 and PD-1, the binding assay at the cellular level was performed using a CHO-K1 cell strain overexpressing human CD73 or PD-1 (CHO-K1-hCD73 or CHO-K1-hPD-1). Briefly, the CHO-K1-hCD73 and CHO-K1-hPD-1 cells were digested and resuspended in an F-12K complete medium, and the cell density was adjusted to 1×10⁶ cells/mL. The cells were seeded in a 96-well V-bottom plate (Corning, #3894) at 100 μL/well, followed by the addition at 100 μL/well and centrifugation at 500 g at 4° C. for 5 min, and then the supernatant was discarded. Antibodies were 3-fold diluted to a maximum final concentration of 50 nM, and a total of 8 concentrations were set. 100 μL of the diluted antibodies was added to each well, and the cells were incubated at 4° C. for 1 h away from light. Thereafter, the cells in each well were rinsed twice with 100 μL of pre-cooled PBS, and centrifuged at 500 g at 4° C. for 5 min, and then the supernatant was discarded. Then 100 μL of a fluorescent secondary antibody (goat anti-human IgG (H+L) secondary antibody, Alexa Fluor® 488 conjugate, Invitrogen, Cat #A11013, 1:1000) was added to each well. […] Finally, the cells in each well were resuspended in 200 μL of pre-cooled PBS, and the fluorescence signal values were read using a BD FACS CANTOII.

[3] = molecular target: T1, Human PD-1 expressed on CHO-K1 cells …; assay: FACS, CHO-K1/hPD-1 cells
Method in brief: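 CHO-K1 cells overexpressing human or cynomolgus PD-1 were incubated 1 h at 4 °C with antigen-binding proteins: 8-11 concentrations, 5-fold dilutions, top final 100 nM or 300 nM, hIgG control. Binding was detected with Alexa Fluor 488 anti-human IgG (30 min, 4 °C) and read by flow cytometry.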

T1 sequence (Q15116 25-288): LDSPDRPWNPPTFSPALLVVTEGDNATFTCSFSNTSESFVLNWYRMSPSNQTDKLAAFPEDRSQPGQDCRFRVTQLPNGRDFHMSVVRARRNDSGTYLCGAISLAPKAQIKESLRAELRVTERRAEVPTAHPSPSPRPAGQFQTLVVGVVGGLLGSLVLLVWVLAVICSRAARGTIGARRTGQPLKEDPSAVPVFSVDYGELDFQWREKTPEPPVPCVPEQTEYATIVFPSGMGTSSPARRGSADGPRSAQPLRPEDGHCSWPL

B1: PR002481 (antibody, human IgG1, V domains shown)
VH: EVQLVETGGGLIQPGGSLRLSCAASGFNVSSHYMSWVRQAPGKGREWVSIIDGGGSTYYADSVKGRFTISRDNSKNRLYLQMNSLRAEDTAMYYCARATAVAEKNGYNYPFNYWGQGTLVTVSS
notes: Heavy-chain-only antibody (HCAb), human IgG1 Fc; two heavy chains, no light chain; also called R4004P556D1; anti-PD1 R4004P556D1 HCAb hG1
Q: For B1, which IC50 [1] is on record?
A: 8.86 nM

Q: And the “Maximum inhibition rate (%)” value [1]?
A: 103%

Q: What about the EC50 [2] of the same binder?
A: 1.24 nM

Q: And the EC50 [3]?
A: 8.94 nM

Q: What about the “MFI Maximum” value [3] of the same binder?
A: 950000

— patent publication US20240034792A1 (HARBOUR BIOMED SHANGHAI, published 2024)
